Assay [1] concerns the target T1, mouse KRT14 (Keratin, type I cytoskeletal 14) as expressed by murine ID8 ovarian cancer cells (Mus musculus (Mouse), UniProt Q61781 1-484).
T1 construct: whole, on cells; also called non-human protein
T1 sequence (looked up): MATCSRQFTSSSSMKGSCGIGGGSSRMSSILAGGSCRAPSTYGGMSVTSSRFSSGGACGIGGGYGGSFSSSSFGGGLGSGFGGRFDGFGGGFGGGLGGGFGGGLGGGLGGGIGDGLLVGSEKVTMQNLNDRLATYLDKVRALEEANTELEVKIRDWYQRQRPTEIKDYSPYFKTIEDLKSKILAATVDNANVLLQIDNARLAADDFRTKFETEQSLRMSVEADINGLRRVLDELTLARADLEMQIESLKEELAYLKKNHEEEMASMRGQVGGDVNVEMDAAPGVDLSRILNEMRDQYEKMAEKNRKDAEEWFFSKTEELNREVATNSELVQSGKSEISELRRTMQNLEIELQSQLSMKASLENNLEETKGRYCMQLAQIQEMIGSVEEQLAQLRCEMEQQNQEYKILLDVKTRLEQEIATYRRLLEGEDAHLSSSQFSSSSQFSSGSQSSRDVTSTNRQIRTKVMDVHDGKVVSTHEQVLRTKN
The experiment in a line: flow cytometry of cardiac blood stained with anti-CD45 and mAb AN-17. The procedure:
Cardiac blood was taken from mice bearing 12-week old ID8 iRFP720+ epithelial ovarian tumours and stained using anti-CD45 and mAb AN-17. Circulating ID8 tumour cells were identified as KRT14+CD45− cells and confirmed by iRFP720+ status. iRFP720+ID8 cells spiked into blood was used as a positive control.
(§1) Flow cytometry was carried out according to standard protocols (PMID: 30602661), with data acquired using a BD LSRFortessa X-20 (BD Biosciences) and analysed using FlowJo software v10.5.0 (BD Biosciences). Samples assessed for KRT14+ cell populations included OVCAR3, CAOV4, ID8 mouse ovarian cancer cells, ascites-derived ovarian cancer cells derived from a clinical specimen (designated #3.1937-07) and cardiac blood from a mice bearing 12-week old epithelial ovarian tumours. For cell lines, 1×10⁶ cells per cell line were incubated with either mAb AN-17 (1:200 dilution) or a commercially available anti-KRT14 polyclonal antibody (Sigma SAB4501657; 1:50 dilution) as a positive control for 45 mins in non-immune serum at room temperature. The secondary antibodies, goat anti-mouse Alexa647 (mAb AN-17) or goat anti-rabbit IgG Alexa 488 (commercial Ab), were diluted 1:500 and incubated for 30 minutes. For blood samples. 2×10⁶ cells were incubated with an Alexa Fluor® 488-conjugated mAb AN-17 antibody for 45 minutes. […]
(A flow cytometer gives signals particle by particle.)

Assay [2] deals with T2, human KRT14 (Keratin, type I cytoskeletal 14) as expressed by human cancer cells and tumour tissue (Homo sapiens (Human), UniProt P02533 1-472).
T2 construct: whole, on cells; Probed on intact cells (surface-exposed N-terminal portion), on permeabilized cells and in FFPE tissue sections; also called K14; Keratin-14
T2 sequence (looked up): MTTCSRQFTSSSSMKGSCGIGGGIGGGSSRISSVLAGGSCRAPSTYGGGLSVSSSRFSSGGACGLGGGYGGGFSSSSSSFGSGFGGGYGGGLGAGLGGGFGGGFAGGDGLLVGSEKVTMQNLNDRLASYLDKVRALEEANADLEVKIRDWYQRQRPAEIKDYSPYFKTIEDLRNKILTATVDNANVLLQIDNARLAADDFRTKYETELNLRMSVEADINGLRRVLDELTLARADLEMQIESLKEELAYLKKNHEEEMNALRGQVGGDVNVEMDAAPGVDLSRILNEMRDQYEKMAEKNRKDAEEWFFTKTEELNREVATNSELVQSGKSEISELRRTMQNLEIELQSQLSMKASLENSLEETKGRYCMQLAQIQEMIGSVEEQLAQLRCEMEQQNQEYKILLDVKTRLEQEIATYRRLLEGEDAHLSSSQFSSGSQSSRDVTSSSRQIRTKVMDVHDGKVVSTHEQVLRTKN
The experiment in a line: flow cytometry. The procedure:
OVCAR3, CAOV4, ID8 and the patient-derived 3.1937-07 cell lines were analysed on a BD LSRFortessa X-20 (BD Biosciences) flow cytometer for KRT14+ cell populations, using mAb AN-17 or a commercially available polyclonal antibody to KRT14 (Sigma SAB4501657).
as §1

B1: monoclonal anti-KRT14 antibody AN-17 (antibody, V domains shown)
VH: QVQLKESGPGLVAPSQSLSITCTVSGFSLSRYSVHWVRQPPGKGLEWLGMIWGGGSTDYNSALKSRLSISKDNSKSQVFLKMNSLQTDDTAMYYCARKDYGYSYFDYWGQGTTLTVSS
VL: DVLMTQTPLSLPVSLGDQASISCRSSQSIVHSNGNTYLEWYLQKPGQSPKLLIYKVSNRFSGVPDRFSGSGSGTDFTLKISRVEAEDLGVYYCFQGSHVPFTFGSGTKLEIKR
notes: the isotype-matched control used is mouse IgG1 kappa; Some assays used it conjugated to Alexa Fluor 488 or Alexa-647; also called mAb AN-17; mAb AN17
As to B1, the binding result in assay [1] and in assay [2] was “binds” each time.

For the origin of these results see patent US20220127341A1 (HUDSON INSTITUTE OF MEDICAL RESEARCH, published 2022).
